Molecular target: the molecule itself
Experiment: cross-linking

B1: endophilin NH2-terminal 125 amino acid fragment (domain or fragment, rat, UniProt O35179 1-125, looked up)
chain: MSVAGLKKQFHKATQKVSEKVGGAEGTKLDDDFKEMERKVDVTSRAVMEIMTKTIEYLQPNPASRAKLSMINTMSKIRGQEKGPGYPQAEALLAEAMLKFGRELGDDCNFGPALGEVGEAMRELS
stoichiometry N: 2

Reference: PMC2198845 (The Journal of Cell Biology, 2001)
